Measurements reported in patent US20130123349A1.

Columns and labels:
[1] = molecular target: collagen-related peptide (GPO)10, GCO-(GPO)10-GCOG-NH2, cross-linked; assay: SPR, Aegyptin over immobilized cross-linked (GPO)10 peptide, two-state model; Ka1
[2] = molecular target: collagen-related peptide (GPO)10, GCO-(GPO)10-GCOG-NH2, cross-linked; assay: SPR, Aegyptin over immobilized cross-linked (GPO)10 peptide, two-state model; Kd1
[3] = molecular target: collagen-related peptide (GPO)10, GCO-(GPO)10-GCOG-NH2, cross-linked; assay: SPR, Aegyptin over immobilized cross-linked (GPO)10, two-state model (text value; Table 4 prints 5.101 µM)
[4] = molecular target: collagen-related peptide (GPO)10, GCO-(GPO)10-GCOG-NH2, cross-linked; assay: SPR, Aegyptin over immobilized cross-linked (GPO)10 peptide, two-state model
[5] = molecular target: soluble collagen type I (pepsin-digested, non-fibrillar, triple helical; BD Biosciences) (human) (UniProt P02452); assay: SPR, saliva injected over immobilized collagen type I for 120 sec at 20 µl/min
[6] = molecular target: soluble collagen type III (pepsin-digested, non-fibrillar; BD Biosciences) (human) (UniProt P02461); assay: SPR, saliva injected over immobilized collagen type III for 120 sec at 20 µl/min
soluble collagen type III (pepsin-digested, non-fibrillar; BD Biosciences) (human), sequence (P02461 168-1196): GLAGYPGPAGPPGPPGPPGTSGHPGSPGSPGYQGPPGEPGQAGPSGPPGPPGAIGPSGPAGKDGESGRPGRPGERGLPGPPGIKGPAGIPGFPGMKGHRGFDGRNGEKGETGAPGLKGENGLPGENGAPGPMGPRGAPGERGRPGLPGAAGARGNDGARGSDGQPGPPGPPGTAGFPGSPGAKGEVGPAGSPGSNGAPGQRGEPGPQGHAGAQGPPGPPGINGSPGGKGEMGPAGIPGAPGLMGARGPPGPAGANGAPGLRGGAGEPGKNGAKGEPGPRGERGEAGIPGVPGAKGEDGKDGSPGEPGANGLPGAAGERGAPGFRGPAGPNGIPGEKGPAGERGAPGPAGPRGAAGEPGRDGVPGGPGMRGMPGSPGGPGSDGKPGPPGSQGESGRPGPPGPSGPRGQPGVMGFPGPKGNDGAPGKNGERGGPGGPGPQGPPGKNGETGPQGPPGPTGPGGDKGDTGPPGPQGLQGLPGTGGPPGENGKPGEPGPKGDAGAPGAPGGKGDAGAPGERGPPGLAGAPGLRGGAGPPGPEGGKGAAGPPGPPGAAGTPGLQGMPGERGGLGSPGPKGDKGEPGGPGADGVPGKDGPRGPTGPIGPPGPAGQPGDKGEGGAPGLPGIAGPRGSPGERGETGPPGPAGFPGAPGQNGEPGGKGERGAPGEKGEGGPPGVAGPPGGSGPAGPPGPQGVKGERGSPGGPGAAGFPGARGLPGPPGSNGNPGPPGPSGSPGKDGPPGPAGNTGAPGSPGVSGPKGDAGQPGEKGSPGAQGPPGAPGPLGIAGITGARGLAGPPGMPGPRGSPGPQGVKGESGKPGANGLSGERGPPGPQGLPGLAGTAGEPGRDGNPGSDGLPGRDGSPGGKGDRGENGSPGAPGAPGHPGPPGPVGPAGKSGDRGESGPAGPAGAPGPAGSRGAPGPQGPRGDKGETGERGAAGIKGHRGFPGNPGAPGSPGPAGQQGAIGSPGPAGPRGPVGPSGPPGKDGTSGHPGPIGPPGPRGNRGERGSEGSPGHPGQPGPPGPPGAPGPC

soluble collagen type I (pepsin-digested, non-fibrillar, triple helical; BD Biosciences) (human), sequence (P02452 179-1192 limits assumed, chain 1 of 2): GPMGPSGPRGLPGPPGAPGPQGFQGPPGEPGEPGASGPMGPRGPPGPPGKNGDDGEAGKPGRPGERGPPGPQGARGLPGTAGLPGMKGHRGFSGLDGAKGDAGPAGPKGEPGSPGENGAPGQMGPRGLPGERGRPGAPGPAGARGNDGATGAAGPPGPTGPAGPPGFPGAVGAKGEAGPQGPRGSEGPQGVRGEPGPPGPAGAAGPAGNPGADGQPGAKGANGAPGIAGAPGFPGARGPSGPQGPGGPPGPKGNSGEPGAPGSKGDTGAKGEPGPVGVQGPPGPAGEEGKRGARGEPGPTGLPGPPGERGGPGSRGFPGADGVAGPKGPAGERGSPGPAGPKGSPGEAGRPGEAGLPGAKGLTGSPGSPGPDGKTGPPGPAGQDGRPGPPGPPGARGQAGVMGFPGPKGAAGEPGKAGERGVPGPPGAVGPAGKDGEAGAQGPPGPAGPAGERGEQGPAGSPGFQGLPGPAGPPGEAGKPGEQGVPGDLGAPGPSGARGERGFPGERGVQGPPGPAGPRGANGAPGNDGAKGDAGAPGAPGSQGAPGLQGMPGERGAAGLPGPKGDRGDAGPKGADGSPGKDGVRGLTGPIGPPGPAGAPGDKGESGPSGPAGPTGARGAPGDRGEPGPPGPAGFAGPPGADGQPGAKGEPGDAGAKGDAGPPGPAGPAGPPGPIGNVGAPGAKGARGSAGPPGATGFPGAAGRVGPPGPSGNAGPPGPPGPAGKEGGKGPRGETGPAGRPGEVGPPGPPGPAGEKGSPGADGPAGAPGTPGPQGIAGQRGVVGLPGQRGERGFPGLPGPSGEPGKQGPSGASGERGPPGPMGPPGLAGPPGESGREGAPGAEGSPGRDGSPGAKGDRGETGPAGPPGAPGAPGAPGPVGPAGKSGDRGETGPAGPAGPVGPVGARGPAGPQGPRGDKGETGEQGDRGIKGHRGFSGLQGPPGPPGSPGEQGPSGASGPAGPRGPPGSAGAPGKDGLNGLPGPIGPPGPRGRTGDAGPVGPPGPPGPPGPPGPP
soluble collagen type I (pepsin-digested, non-fibrillar, triple helical; BD Biosciences) (human), sequence (P08123 91-1104 limits assumed, chain 2 of 2, further chain): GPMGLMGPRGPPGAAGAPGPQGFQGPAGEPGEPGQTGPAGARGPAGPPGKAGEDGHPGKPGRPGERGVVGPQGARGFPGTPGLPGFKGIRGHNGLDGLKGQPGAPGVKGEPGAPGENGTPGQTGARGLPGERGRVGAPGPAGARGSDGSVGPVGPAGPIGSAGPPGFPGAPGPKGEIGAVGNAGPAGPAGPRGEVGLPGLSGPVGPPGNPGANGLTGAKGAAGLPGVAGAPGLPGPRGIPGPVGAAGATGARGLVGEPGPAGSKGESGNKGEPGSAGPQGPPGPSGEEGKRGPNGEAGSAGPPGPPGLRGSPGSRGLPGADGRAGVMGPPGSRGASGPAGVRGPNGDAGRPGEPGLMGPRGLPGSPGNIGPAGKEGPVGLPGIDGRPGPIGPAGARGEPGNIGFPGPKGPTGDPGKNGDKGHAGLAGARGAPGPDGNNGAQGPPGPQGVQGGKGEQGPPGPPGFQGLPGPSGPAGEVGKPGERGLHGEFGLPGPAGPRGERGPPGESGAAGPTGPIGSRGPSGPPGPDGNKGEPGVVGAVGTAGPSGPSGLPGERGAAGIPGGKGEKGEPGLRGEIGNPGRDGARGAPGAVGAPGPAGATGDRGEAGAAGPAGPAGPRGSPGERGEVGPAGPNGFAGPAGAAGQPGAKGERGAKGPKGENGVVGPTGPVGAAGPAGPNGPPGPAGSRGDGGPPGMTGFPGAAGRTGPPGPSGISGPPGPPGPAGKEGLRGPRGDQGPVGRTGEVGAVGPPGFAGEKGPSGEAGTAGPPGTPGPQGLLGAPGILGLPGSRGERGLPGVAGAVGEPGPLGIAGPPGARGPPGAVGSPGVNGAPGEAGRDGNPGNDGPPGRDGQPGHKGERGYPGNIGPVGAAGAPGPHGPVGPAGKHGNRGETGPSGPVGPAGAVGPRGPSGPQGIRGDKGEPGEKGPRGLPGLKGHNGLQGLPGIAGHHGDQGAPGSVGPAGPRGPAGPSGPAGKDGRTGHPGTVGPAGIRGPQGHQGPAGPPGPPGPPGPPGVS

With “recombinant Aegyptin (from UniProt O01949 20-273)” the kon [1] was 206000 M⁻¹ s⁻¹, the koff [2] was 1.19 s⁻¹ and the Kd [3] was 5.01 µM. For the same substance, the Kd [4] was 5.1 µM, the Kd2 (two-state model) [4] was 0.0289 s⁻¹ and the second Ka of the two-state model [4] was 0.00402 M⁻¹ s⁻¹.
Ae. aegypti saliva (0.07 µg/ml) showed a Response (RU) [5] of 556 RU and a Response (RU) [6] of 348 RU.
